{
  "source": "paper PMC2837359",
  "about": "(Journal of molecular biology, 2009)",
  "proteins": {"B1": {"name": "galactose permease (GalP), H+/galactose symporter from E. coli, His6-tagged (natural protein, UniProt P0AEP1 1-464, looked up)", "chain": "MPDAKKQGRSNKAMTFFVCFLAALAGLLFGLDIGVIAGALPFIADEFQITSHTQEWVVSSMMFGAAVGAVGSGWLSFKLGRKKSLMIGAILFVAGSLFSAAAPNVEVLILSRVLLGLAVGVASYTAPLYLSEIAPEKIRGSMISMYQLMITIGILGAYLSDTAFSYTGAWRWMLGVIIIPAILLLIGVFFLPDSPRWFAAKRRFVDAERVLLRLRDTSAEAKRELDEIRESLQVKQSGWALFKENSNFRRAVFLGVLLQVMQQFTGMNVIMYYAPKIFELAGYTNTTEQMWGTVIVGLTNVLATFIAIGLVDRWGRKPTLTLGFLVMAAGMGVLGTMMHIGIHSPSAQYFAIAMLLMFIVGFAMSAGPLIWVLCSEIQPLKGRDFGITCSTATNWIANMIVGATFLTMLNTLGNANTFWVYAALNVLFILLTLWLVPETKHVSLEHIERNLMKGRKLREIGAHD"}},
  "target": "the molecule itself",
  "assay": "single particle electron microscopy",
  "data": [
    {"protein": "B1", "values": [
      {"measurement": "stoichiometry N", "result": 3}
    ]}
  ]
}
